# Assay results reported in patent US20160264649A1.
# What was measured:
# Test in all cases: cell-based or functional assay
# [1] = target: HIV-1 Env of isolate MGRM-D-021 (subtype D) (HIV-1)
# [2] = target: HIV-1 Env of isolate MGRM-D-028 (subtype D) (HIV-1)
# [3] = target: HIV-1 Env of isolate MGRM-AE-002 (subtype AE) (HIV-1)
# [4] = target: HIV-1 Env of isolate MGRM-AE-001 (subtype AE) (HIV-1)
# [5] = target: HIV-1 Env of isolate MGRM-F1-004 (subtype F) (HIV-1)
# [6] = target: HIV-1 Env of isolate 92WR026 (subtype A) (HIV-1)
# [7] = target: HIV-1 Env of isolate VLGCA1 (subtype A) (HIV-1)
# [8] = target: HIV-1 Env of isolate MGRM-D-003 (subtype D) (HIV-1)
# [9] = target: HIV-1 Env of isolate 92UG031 (subtype A) (HIV-1)
# [10] = target: HIV-1 Env of isolate MGRM-AE-004 (subtype AE) (HIV-1)
# [11] = target: HIV-1 Env of isolate 92WR024 (subtype A) (HIV-1)
# [12] = target: HIV-1 Env of isolate MGRM-F1-016 (subtype F) (HIV-1)
# [13] = target: HIV-1 Env of isolate MGRM-AE-005 (subtype AE) (HIV-1)
# [14] = target: HIV-1 Env of isolate MGRM-F1-018 (subtype F) (HIV-1)
# [15] = target: HIV-1 Env of isolate MGRM-F1-010 (subtype F) (HIV-1)
# [16] = target: HIV-1 Env of isolate MGRM-F1-023 (subtype F) (HIV-1)
# [17] = target: HIV-1 Env of isolate MGRM-D-026 (subtype D) (HIV-1)
# [18] = target: HIV-1 Env of isolate MGRM-F1-012 (subtype F) (HIV-1)
# [19] = target: HIV-1 Env of isolate MGRM-AE-003 (subtype AE) (HIV-1)
# [20] = target: HIV-1 Env of isolate MGRM-AE-006 (subtype AE) (HIV-1)
# [21] = target: HIV-1 Env of isolate 93WR029 (subtype A) (HIV-1)
# [22] = target: HIV-1 Env of isolate MGRM-D-029 (subtype D) (HIV-1)
# [23] = target: HIV-1 Env of isolate MGRM-F1-022 (subtype F) (HIV-1)
# [24] = target: HIV-1 Env of isolate MGRM-D-022 (subtype D) (HIV-1)
# [25] = target: HIV-1 Env of isolate 92TH021 (subtype AE) (HIV-1)
# [26] = target: HIV-1 Env of isolate MGRM-D-012 (subtype D) (HIV-1)
# [27] = target: HIV-1 Env of isolate MGRM-D-020 (subtype D) (HIV-1)
# [28] = target: HIV-1 Env of isolate 94UG103 (subtype A) (HIV-1)
# [29] = target: HIV-1 Env of isolate MGRM-D-011 (subtype D) (HIV-1)
# [30] = target: HIV-1 Env of isolate MGRM-D-013 (subtype D) (HIV-1)
# [31] = target: HIV-1 Env of isolate 92WR021 (subtype A) (HIV-1)
# [32] = target: HIV-1 Env of isolate MGRM-AE-008 (subtype AE) (HIV-1)
# [33] = target: HIV-1 Env of isolate MGRM-D-002 (subtype D) (HIV-1)
# [34] = target: HIV-1 Env of isolate MGRM-D-018 (subtype D) (HIV-1)
# [35] = target: HIV-1 Env of isolate 92UG114 (subtype D) (HIV-1)
# [36] = target: HIV-1 Env of isolate MGRM-F1-020 (subtype F) (HIV-1)
# [37] = target: HIV-1 Env of isolate MGRM-F1-021 (subtype F) (HIV-1)
# [38] = target: HIV-1 Env of isolate MGRM-D-019 (subtype D) (HIV-1)
# [39] = target: HIV-1 Env of isolate MGRM-F1-008 (subtype F) (HIV-1)
# [40] = target: HIV-1 Env of isolate 93UG077 (subtype A) (HIV-1)
# [41] = target: HIV-1 Env of isolate MGRM-D-014 (subtype D) (HIV-1)
# [42] = target: HIV-1 Env of isolate 94 KE 105 (subtype AC) (HIV-1)
# [43] = target: HIV-1 Env of isolate CMU02 (subtype AE) (HIV-1)
# [44] = target: HIV-1 Env of isolate MGRM-F1-006 (subtype F) (HIV-1)
# [45] = target: HIV-1 Env of isolate MGRM-F1-013 (subtype F) (HIV-1)
# [46] = target: HIV-1 Env of isolate MGRM-D-024 (subtype D) (HIV-1)
# [47] = target: HIV-1 Env of isolate MGRM-F1-014 (subtype F) (HIV-1)
# [48] = target: HIV-1 Env of isolate MGRM-D-008 (subtype D) (HIV-1)
# [49] = target: HIV-1 Env of isolate MGRM-F1-015 (subtype F) (HIV-1)
# [50] = target: HIV-1 Env of isolate MGRM-D-004 (subtype D) (HIV-1)
# [51] = target: HIV-1 Env of isolate MGRM-F1-017 (subtype F) (HIV-1)
# [52] = target: HIV-1 Env of isolate MGRM-D-001 (subtype D) (HIV-1)
# [53] = target: HIV-1 Env of isolate MGRM-D-005 (subtype D) (HIV-1)
# [54] = target: HIV-1 Env of isolate 92WR009 (subtype A) (HIV-1)
# [55] = target: HIV-1 Env of isolate 92UG037 (subtype A) (HIV-1)
# [56] = target: HIV-1 Env of isolate 92WR020 (subtype A) (HIV-1)
# [57] = target: HIV-1 Env of isolate MGRM-AE-007 (subtype AE) (HIV-1)
# [58] = target: HIV-1 Env of isolate MGRM-D-016 (subtype D) (HIV-1)
# PGT-141 (4964_G22; 4993_K13) (antibody), sequence (VH): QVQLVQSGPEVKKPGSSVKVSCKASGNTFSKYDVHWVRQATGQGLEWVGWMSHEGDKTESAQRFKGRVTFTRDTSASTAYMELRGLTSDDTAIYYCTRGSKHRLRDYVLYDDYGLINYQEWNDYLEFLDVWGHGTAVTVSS
# PGT-141 (4964_G22; 4993_K13) (antibody), sequence (VL): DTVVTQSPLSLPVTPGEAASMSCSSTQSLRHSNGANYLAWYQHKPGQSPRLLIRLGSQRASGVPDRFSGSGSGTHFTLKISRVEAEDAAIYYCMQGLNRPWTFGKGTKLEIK
substance,measurement,setting,value
PGT-141 (4964_G22; 4993_K13) (antibody),IC50 (pseudovirus neutralization),[1],> 50 µg/mL
same,IC50 (pseudovirus neutralization),[2],> 50 µg/mL
same,IC50 (pseudovirus neutralization),[3],> 50 µg/mL
same,IC50 (pseudovirus neutralization),[4],> 50 µg/mL
same,IC50 (pseudovirus neutralization),[5],0.021 µg/mL
same,IC50 (pseudovirus neutralization),[6],1.78 µg/mL
same,IC50 (pseudovirus neutralization),[7],2.07 µg/mL
same,IC50 (pseudovirus neutralization),[8],> 50 µg/mL
same,IC50 (pseudovirus neutralization),[9],0.093 µg/mL
same,IC50 (pseudovirus neutralization),[10],0.001 µg/mL
same,IC50 (pseudovirus neutralization),[11],0.175 µg/mL
same,IC50 (pseudovirus neutralization),[12],> 50 µg/mL
same,IC50 (pseudovirus neutralization),[13],> 50 µg/mL
same,IC50 (pseudovirus neutralization),[14],0.785 µg/mL
same,IC50 (pseudovirus neutralization),[15],> 50 µg/mL
same,IC50 (pseudovirus neutralization),[16],0.307 µg/mL
same,IC50 (pseudovirus neutralization),[17],32.5 µg/mL
same,IC50 (pseudovirus neutralization),[18],> 50 µg/mL
same,IC50 (pseudovirus neutralization),[19],> 50 µg/mL
same,IC50 (pseudovirus neutralization),[20],> 50 µg/mL
same,IC50 (pseudovirus neutralization),[21],0.019 µg/mL
same,IC50 (pseudovirus neutralization),[22],0.057 µg/mL
same,IC50 (pseudovirus neutralization),[23],0.114 µg/mL
same,IC50 (pseudovirus neutralization),[24],> 50 µg/mL
same,IC50 (pseudovirus neutralization),[25],0.001 µg/mL
same,IC50 (pseudovirus neutralization),[26],> 50 µg/mL
same,IC50 (pseudovirus neutralization),[27],> 50 µg/mL
same,IC50 (pseudovirus neutralization),[28],> 50 µg/mL
same,IC50 (pseudovirus neutralization),[29],> 50 µg/mL
same,IC50 (pseudovirus neutralization),[30],0.179 µg/mL
same,IC50 (pseudovirus neutralization),[31],> 50 µg/mL
same,IC50 (pseudovirus neutralization),[32],0.101 µg/mL
same,IC50 (pseudovirus neutralization),[33],> 50 µg/mL
same,IC50 (pseudovirus neutralization),[34],> 50 µg/mL
same,IC50 (pseudovirus neutralization),[35],> 50 µg/mL
same,IC50 (pseudovirus neutralization),[36],1.15 µg/mL
same,IC50 (pseudovirus neutralization),[37],> 50 µg/mL
same,IC50 (pseudovirus neutralization),[38],1.66 µg/mL
same,IC50 (pseudovirus neutralization),[39],0.193 µg/mL
same,IC50 (pseudovirus neutralization),[40],> 50 µg/mL
same,IC50 (pseudovirus neutralization),[41],0.01 µg/mL
same,IC50 (pseudovirus neutralization),[42],0.204 µg/mL
same,IC50 (pseudovirus neutralization),[43],> 50 µg/mL
same,IC50 (pseudovirus neutralization),[44],8.99 µg/mL
same,IC50 (pseudovirus neutralization),[45],0.043 µg/mL
same,IC50 (pseudovirus neutralization),[46],> 50 µg/mL
same,IC50 (pseudovirus neutralization),[47],0.001 µg/mL
same,IC50 (pseudovirus neutralization),[48],0.371 µg/mL
same,IC50 (pseudovirus neutralization),[49],> 50 µg/mL
same,IC50 (pseudovirus neutralization),[50],> 50 µg/mL
same,IC50 (pseudovirus neutralization),[51],30.8 µg/mL
same,IC50 (pseudovirus neutralization),[52],> 50 µg/mL
same,IC50 (pseudovirus neutralization),[53],5.15 µg/mL
same,IC50 (pseudovirus neutralization),[54],0.022 µg/mL
same,IC50 (pseudovirus neutralization),[55],1.28 µg/mL
same,IC50 (pseudovirus neutralization),[56],> 50 µg/mL
same,IC50 (pseudovirus neutralization),[57],33.1 µg/mL
same,IC50 (pseudovirus neutralization),[58],> 50 µg/mL
